Where two headings read alike, the source gives them in different places.
B1: Arabidopsis thaliana eIFiso4E (natural protein)
chain: MATDDVNEPLPAAAELPATEAEKQPHKLERKWSFWFDNQSKKGAAWGASLRKAYTFDTVEDFWGLHETIFQTSKLTANAEIHLFKAGVEPKWEDPECANGGKWTWVVTANRKEALDKGWLETLMALIGEQFDEADEICGVVASVRPQSKQDKLSLWTRTKSNEAVLMGIGKKWKEILDVTDKITFNNHDDSRRSRFTV

Columns and labels:
Experiment in all cases: SPR
[1] = biological target: Turnip mosaic virus (TuMV) viral protein-genome linked (VPg), His-tagged (turnip mosaic virus)
[2] = biological target: Turnip mosaic virus (TuMV) viral protein-genome linked (VPg), His-tagged (turnip mosaic virus); remark: listed apart in the source
[3] = biological target: Turnip mosaic virus (TuMV) viral protein-genome linked (VPg), His-tagged (turnip mosaic virus); remark: listed apart in the source

Sequence of Turnip mosaic virus (TuMV) viral protein-genome linked (VPg), His-tagged (turnip mosaic virus) (P89509 1925-2116 limits assumed): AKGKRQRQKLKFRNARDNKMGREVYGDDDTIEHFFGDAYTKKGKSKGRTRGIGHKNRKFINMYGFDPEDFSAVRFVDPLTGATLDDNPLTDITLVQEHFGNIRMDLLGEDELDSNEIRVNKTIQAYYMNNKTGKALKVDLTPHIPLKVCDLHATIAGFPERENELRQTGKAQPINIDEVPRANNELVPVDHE

Molecule | Kd [1] | koff [1] | kon [1] | Kd [2] | koff [2] | kon [2] | Kd [3] | koff [3] | kon [3]
N-terminal 33 residues-deleted human eIF4E (from UniProt P06730 34-217) (domain or fragment) | 3290 nM | 0.00447 s⁻¹ | 1360 M⁻¹ s⁻¹ |  |  |  |  |  | 
B1 |  |  |  | 1410 nM | 0.00459 s⁻¹ | 3250 M⁻¹ s⁻¹ | 208 nM | 0.00432 s⁻¹ | 20800 M⁻¹ s⁻¹

From publication PMC4244113
